Assay results reported in patent US20120316071A1 (published 2012).
Each block holds one binder with its values, some of them ahead of it.

Assays:
[1] = target: T1, Recombinant Human DLL4 (R&D Systems Cat#1506-D4/CF) (human, UniProt Q9NR61 27-524); assay: SPR
T1 construct: bought recombinant protein; also called rHuman DLL4; delta-like protein 4

[2] = target: T2, full-length human DLL4 expressed on the surface of CHO cells (human, UniProt Q9NR61 26-685); assay: competition, flow cytometry; 250 nM biotinylated Notch-Fc as competitor on CHO-DLL4 cells, streptavidin-PE
T2 construct: also called CHO-DLL4; DLL4-expressing CHO cells

[3] = target: T3, Recombinant Human DLL4 (R&D Systems Cat#1506-D4/CF) (human, UniProt Q9NR61 27-524); assay: ECL (MSD) binding assay, DLL4 signal divided by blank, repeat experiment
T3 construct: Bought recombinant protein; also called delta-like protein 4; rHuman DLL4

[4] = target: T4, rHuman HGF R/c-MET/Fc Chimera, CF (R&D Systems Cat#358-MT/CF) (human, UniProt P08581 25-932); assay: ECL Multispot (MSD) assay, antigen spotted on plate, 10 nM Fab;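 note: purified Fab bound to antigen spots for 1 h at 20 °C, then TAG detection antibody, electrochemiluminescence compared with each well's blank, ratio of 4 or more marks a hit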
T4 construct: Bought recombinant protein; also called HGF R/Fc

[5] = target: T5, rHuman P-Cadherin/Fc Chimera, CF (R&D Systems Cat#861-PC) (human, UniProt P22223 108-654); assay: as above
T5 construct: Bought recombinant protein

[6] = target: T6, rHuman EGF R/Fc Chimera, CF (R&D Systems Cat#344-ER) (human, UniProt P00533 25-645); assay: as above
T6 construct: Bought recombinant protein

[7] = target: T7, rHuman ErbB2/Fc Chimera, CF (R&D Systems Cat#1129-ER) (human, UniProt P04626 23-652); assay: as above
T7 construct: Bought recombinant protein

[8] = target: T8, rHuman Erythropoietin R/Fc Chimera, CF (R&D Systems Cat#963-ER) (human, UniProt P19235 25-250); assay: as above
T8 construct: Bought recombinant protein; also called EPO R; EPO R/Fc
T8 sequence (looked up): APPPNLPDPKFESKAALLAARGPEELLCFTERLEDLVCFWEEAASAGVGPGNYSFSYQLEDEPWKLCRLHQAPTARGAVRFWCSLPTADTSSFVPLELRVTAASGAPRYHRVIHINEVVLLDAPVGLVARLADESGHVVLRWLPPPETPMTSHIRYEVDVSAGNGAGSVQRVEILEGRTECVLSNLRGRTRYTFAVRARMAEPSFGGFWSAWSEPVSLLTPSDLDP

[9] = target: T9, rHuman IGF-1 sR (insulin-like growth factor-1 soluble receptor), CF (R&D Systems Cat#391-GR) (human, UniProt P08069 31-932); assay: as above
T9 construct: Bought recombinant soluble receptor

[10] = target: T3, Recombinant Human DLL4 (R&D Systems …); assay: as above
[11] = target: T10, rHuman CD44/Fc Chimera, CF (R&D Systems Cat#3660-CD) (human, UniProt P16070 21-220); assay: as above
T10 construct: Bought recombinant protein

[12] = target: T3, Recombinant Human DLL4 (R&D Systems …); assay: ECL (MSD) binding assay, immobilised DLL4, repeat experiment
[13] = target: T1, Recombinant Human DLL4 (R&D Systems …); assay: ELISA titration, 3-fold dilutions from 20 nM Fab
[14] = target: T11, Recombinant Human DLL4 (R&D Systems Cat#1506-D4/CF) (human, UniProt Q9NR61 27-524); assay: ECL multispot (MSD) binding assay; antigen spotted on plate, Fab in solution, Ru-labelled anti-kappa detection;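 note: purified Fab in 1% BSA TBST incubated 1 h at 20 °C with shaking, signal compared with each well's blank, signal/blank ratio of 4 or above counted as binder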
T11 construct: Bought from R&D Systems; also called delta-like protein 4; rHuman DLL4

[15] = target: T12, rHuman IGF-1 sR, CF (R&D Systems Cat#391-GR) (human, UniProt P08069 31-932); assay: as above
T12 construct: Bought from R&D Systems as a soluble receptor; also called insulin-like growth factor-1 soluble receptor

[16] = target: T13, rHuman HGF R/c-MET/Fc Chimera, CF (R&D Systems Cat#358-MT/CF) (human, UniProt P08581 25-932); assay: as above
T13 construct: Bought from R&D Systems; also called HGF R/Fc; hepatocyte growth factor receptor; Fc part of the bought chimera not given

[17] = target: T14, rHuman EGF R/Fc Chimera, CF (R&D Systems Cat#344-ER) (human, UniProt P00533 25-645); assay: as above
T14 construct: Bought from R&D Systems; also called epidermal growth factor receptor; Fc part of the bought chimera not given

[18] = target: T15, rHuman P-Cadherin/Fc Chimera, CF (R&D Systems Cat#861-PC) (human, UniProt P22223 108-654); assay: as above
T15 construct: Bought from R&D Systems; Fc part of the bought chimera not given

[19] = target: T16, rHuman ErbB2/Fc Chimera, CF (R&D Systems Cat#1129-ER) (human, UniProt P04626 23-652); assay: as above
T16 construct: Bought from R&D Systems; also called human epidermal growth factor 2 receptor; Fc part of the bought chimera not given

fold binding affinity against the parental Fab [1]: 130 fold
B1: Fab VH5-51_IGHD5-18*01>3_IGHJ4*01 G100K/G104T/G24T/S28R/G35V (KT TRV) & V3-4_IGLJ1*01 (Fab, V domains shown)
VH: EVQLVQSGAEVKKPGESLKISCKTSGYRFTSYWIVWVRQMPGKGLEWMGIIYPGDSDTRYSPSFQGQVTISADKSISTAYLQWSSLKASDTAMYYCARRKYSYTYDYFDYWGQGTLVTVSS
VL: QTVVTQEPSFSVSPGGTVTLTCGLSSGSVSTSYYPSWYQQTPGQAPRTLIYSTNTRSSGVPDRFSGSILGNKAALTITGAQADDESDYYCVLYMGSGISYVFGTGTKVTVL
notes: Fab; also called H:KT TRV & L:wt; H:KT TRV & V3-4_IGLJ1*01

fold binding affinity against the parental Fab [1]: 1000 fold
B2: Fab VH5-51_IGHD5-18*01>3_IGHJ4*01 G100K/G104T G24T/S28R/G35V (H:KT TRV) & V3-4_IGLJ1*01 V91L/S96P S52G (L:LP S52G) (Fab, V domains shown)
VH: EVQLVQSGAEVKKPGESLKISCKTSGYRFTSYWIVWVRQMPGKGLEWMGIIYPGDSDTRYSPSFQGQVTISADKSISTAYLQWSSLKASDTAMYYCARRKYSYTYDYFDYWGQGTLVTVSS
VL: QTVVTQEPSFSVSPGGTVTLTCGLSSGSVSTSYYPSWYQQTPGQAPRTLIYGTNTRSSGVPDRFSGSILGNKAALTITGAQADDESDYYCLLYMGPGISYVFGTGTKVTVL
notes: Fab; also called H:KT TRV & L:LP S52G

signal of biotinylated Notch-Fc bound to CHO-DLL4 cells at 2 nM Fab (read-out not given) [2]: 250
signal of biotinylated Notch-Fc bound to CHO-DLL4 cells at 10 nM Fab (read-out not given) [2]: 190
B3: Fab VH5-51_IGHD5-18*01>3_IGHJ4*01 G100K/G104T G24T/S28R/G35V & V3-4_IGLJ1*01 V91L/S96P S52G (Fab, V domains shown)
VH: EVQLVQSGAEVKKPGESLKISCKTSGYRFTSYWIVWVRQMPGKGLEWMGIIYPGDSDTRYSPSFQGQVTISADKSISTAYLQWSSLKASDTAMYYCARRKYSYTYDYFDYWGQGTLVTVSS
VL: QTVVTQEPSFSVSPGGTVTLTCGLSSGSVSTSYYPSWYQQTPGQAPRTLIYGTNTRSSGVPDRFSGSILGNKAALTITGAQADDESDYYCLLYMGPGISYVFGTGTKVTVL
notes: Fab; Constant parts come from Plasmid A (CH1, His6, Flag) and Plasmid E (lambda CL); also called H:KT TRV & L:LP S52G

fold binding affinity against the parental Fab [1]: 1000 fold
B4: Fab VH5-51_IGHD5-18*01>3_IGHJ4*01 G100K/G104T G24T/S28R/G35V (H:KT TRV) & V3-4_IGLJ1*01 V91L/S96P (L:LP) (Fab, V domains shown)
VH: EVQLVQSGAEVKKPGESLKISCKTSGYRFTSYWIVWVRQMPGKGLEWMGIIYPGDSDTRYSPSFQGQVTISADKSISTAYLQWSSLKASDTAMYYCARRKYSYTYDYFDYWGQGTLVTVSS
VL: QTVVTQEPSFSVSPGGTVTLTCGLSSGSVSTSYYPSWYQQTPGQAPRTLIYSTNTRSSGVPDRFSGSILGNKAALTITGAQADDESDYYCLLYMGPGISYVFGTGTKVTVL
notes: Fab; also called H:KT TRV & L:LP

Signal/Noise [3]: 238
ECL signal [4]: 404
ECL signal [5]: 276
ECL signal [6]: 293
ECL signal [7]: 244
ECL signal [8]: 466
ECL signal [9]: 315
ECL signal [10]: 80700
ECL signal [11]: 414
ECL signal [12]: 109000
B5: Fab VH1-46_IGHD6-6*01_IGHJ1*01 S102A/S103P/S104F/H111F F29A & L6_IGKJ1*01 (Fab, V domains shown)
VH: QVQLVQSGAEVKKPGASVKVSCKASGYTATSYYMHWVRQAPGQGLEWMGIINPSGGSTSYAQKFQGRVTMTRDTSTSTVYMELSSLRSEDTAVYYCAREEYAPFSAEYFQFWGQGTLVTVSS
VL: not shown
notes: Fab as for m1 (CH1 with His6/Flag tags, kappa CL); also called APFF F29A

fold binding affinity against the antibody mutants with heavy chain H:APFF ALTH [13]: ~10 fold
fold binding affinity against the parent Fab [1]: 430 fold
B6: Fab VH1-46_IGHD6-6*01_IGHJ1*01 S102A/S103P/S104F/H111F I51V/N52L/S54T/G56H (H:APFF VLTH) & L6_IGKJ1*01 S28N/S30D/S31H S52L/A55S (L:NDH LS) (Fab, V domains shown)
VH: QVQLVQSGAEVKKPGASVKVSCKASGYTFTSYYMHWVRQAPGQGLEWMGIVLPTGHSTSYAQKFQGRVTMTRDTSTSTVYMELSSLRSEDTAVYYCAREEYAPFSAEYFQFWGQGTLVTVSS
VL: EIVLTQSPATLSLSPGERATLSCRASQNVDHYLAWYQQKPGQAPRLLIYDALNRSTGIPARFSGSGSGTDFTLTISSLEPEDFAVYYCQQRSNWPPWTFGQGTKVEIKR
notes: Fab; also called H:APFF VLTH & L:NDH LS

ECL signal [14]: 197000
ECL signal [15]: 342
ECL signal [16]: 252
ECL signal [17]: 279
ECL signal [18]: 318
ECL signal [19]: 263
B7: Fab VH1-46_IGHD6-6*01_IGHJ1*01 S102A/S103P/S104F/H111F & L6_IGKJ1*01 (Fab, V domains shown)
VH: QVQLVQSGAEVKKPGASVKVSCKASGYTFTSYYMHWVRQAPGQGLEWMGIINPSGGSTSYAQKFQGRVTMTRDTSTSTVYMELSSLRSEDTAVYYCAREEYAPFSAEYFQFWGQGTLVTVSS
VL: not shown
notes: Tested as a Fab made in E. coli; The heavy chain vector (Plasmid A) adds CH1 with His6 and Flag tags; The light chain vector (Plasmid C) adds kappa CL; also called APFF; H:APFF & L:wt
